The values that follow come from US9631180B2, “Recombinant manganese oxidase” (OREGON HEALTH & SCIENCE UNIVERSITY, priority 2013, dated 2017).

For data set [1], the system named is Bacillus subtilis CotA. The conditions noted are these: described in Durão P et al, 2008; cited from earlier work.
Data set [2] concerns B. licheniformis CotA. The conditions noted are these: described in Koschorreck K et al, 2008; cited from earlier work.
Data set [3] is described as follows: Fe(II) oxidation kinetics, FerroZine quench assay. In kind it is biochemical. Particulars: pH 5. Here is the method: (§1) Kinetic experiments were performed on the Molecular Devices SpectraMax® M2 microplate reader spectrophotometer at 22° C. with purified protein. […] Reactions were carried out with 10 μg Mnx (final 240 nM) 100 mM in phosphate-citrate buffer pH 3-8 and 20 mM CHES, HEPES, and MES at pH 7-10. Dimethoxyphenol (DMP) oxidation was followed by measuring the increase in absorbance at 468 nm and ε=49.6 mM-1 cm-1. These assays were performed in at least two independent trials in triplicate. Fe(II) (ferrous ammonium sulfate) oxidation was measured by quenching 200 μl reactions with 50 μl of the Fe(II) chelating colorimetric assay FerroZine® (15 mM) and a ferrous ammonium sulfate standard curve, noting the absorbance at 570 nm. Fe(II) oxidation reactions were performed with 10 μg recombinant Mn oxidase complex in 100 mM Na acetate-acetic acid buffer (pH 4-5.5). Mn(II) (MnCl2) oxidation in 20 mM HEPES (pH 7-8.5) was measured by quenching 5 μl of 200 μl reactions with 195 μl leucoberbelin blue (LBB) colorimetric reagent and reading the absorbance at 618 nm. […] These slopes were converted to the appropriate kinetic units, plotted, and fit with nonlinear regressions determined by comparing best fit values in the same software. KM and Vmax were determined and reported as KM and kcat=Vmax/[enzyme].

A short description of data set [4]: Mn(II) oxidation kinetics, leucoberbelin blue (LBB) quench assay. Format: biochemical. The procedure:
Kinetic experiments were performed on the Molecular Devices SpectraMax® M2 microplate reader spectrophotometer at 22° C. with purified protein. […] Reactions were carried out with 10 μg Mnx (final 240 nM) 100 mM in phosphate-citrate buffer pH 3-8 and 20 mM CHES, HEPES, and MES at pH 7-10. Dimethoxyphenol (DMP) oxidation was followed by measuring the increase in absorbance at 468 nm and ε=49.6 mM-1 cm-1. These assays were performed in at least two independent trials in triplicate. Fe(II) (ferrous ammonium sulfate) oxidation was measured by quenching 200 μl reactions with 50 μl of the Fe(II) chelating colorimetric assay FerroZine® (15 mM) and a ferrous ammonium sulfate standard curve, noting the absorbance at 570 nm. Fe(II) oxidation reactions were performed with 10 μg recombinant Mn oxidase complex in 100 mM Na acetate-acetic acid buffer (pH 4-5.5). Mn(II) (MnCl2) oxidation in 20 mM HEPES (pH 7-8.5) was measured by quenching 5 μl of 200 μl reactions with 195 μl leucoberbelin blue (LBB) colorimetric reagent and reading the absorbance at 618 nm. Working LBB reagent was prepared by diluting concentrated stock (100 mg LBB in 25 ml 0.4% NaOH) 1:10 into 1% acetic acid. A KMnO4 standard curve was used to determine MnO2 oxide equivalent concentration. The metal substrate assays were performed in five independent trials then the high and low values were discarded from each concentration. The linear part of each curve was fit plotted and fit with a linear regression in GraphPad Prism®. These slopes were converted to the appropriate kinetic units, plotted, and fit with nonlinear regressions determined by comparing best fit values in the same software. KM and Vmax were determined and reported as KM and kcat=Vmax/[enzyme].

Data set [5] is described as follows: 2,6-DMP oxidation kinetics, absorbance at 468 nm. Particulars: Phosphate-citrate buffer. In kind it is biochemical. Here is the method: as §1
A short description of data set [6]: O2 consumption during Mn oxidation, Clark type electrode. In kind it is biochemical. Particulars: for lag time before O2 consumption is detected: after addition of MnCl2, across all runs. Here is the method:
Also indicative of MCOs is the consumption of O2 and its reduction to H2O, terminating electron transfer at the trinuclear Cu center. O2 consumption was measured on a Clark type electrode during Mn oxidation by the recombinant Mn oxidase complex. Following the addition of MnCl2 to the enzyme, there is about a 30 s lag time before O2 consumption is detected across all runs (FIG. 7A). Starting with a higher concentration of MnCl2, results in a faster initial velocity of O2 consumption (FIG. 7B). […] This stoichiometry supports the MCO mechanism of the four electron reduction required to generate 2 mol H2O from 1 mol O2.
Oxygen consumption was measured on a Rank Brothers LTD model 10 electrode with the polarizing voltage set to 630 mV. The 2 ml water-jacketed reaction cell was kept at 37° C. using a water bath. The instrument was calibrated by taking a zero measurement with Ar purged water and a 100% measurement with atmospheric oxygenated water assuming 214 μM O2 at […]. A computer interfaced with the electrode measured 02 every 1 s. Data collection began about 1 min before 10 μL of 1 mg/ml Mnx protein (^˜24 nM final if mass of recombinant Mn oxidase complex is 211 kDa) was added through the 2 mm diameter opening in the cap and allowed to equilibrate with 37° C. 20 mM HEPES pH 7.8 50 mM NaCl. Another minute of baseline reading was taken before adding 10 μL of various concentrations of MnCl2. The data was plotted Time (min) vs. % O2 remaining, if addition of MnCl2 is t=0. The initial O2 consumption velocities of all runs were plotted against starting MnCl2 concentration. Total O2 consumed was calculated by taking the difference of final from initial O2 concentrations then plotted against MnCl2 concentration and fitted with a linear regression, forced through the xy origin.

By Km is commonly meant the substrate concentration at which the rate is half of its maximum. Usually kcat stands for the number of substrate molecules converted per active site and unit of time at saturation.

Regarding `CCn1c(=NN=c2sc3cc(S(=O)(=O)O)ccc3n2CC)sc2cc(S(=O)(=O)O)ccc21` [ABTS, 2,2′-azino-bis(3-ethylbenzthiazoline-6-sulphonic acid)], in data set [1], the Michaelis-Menten constant (Km) is 6.5 µM and the kcat is 83 s⁻¹. In addition, the catalytic constant (kcat) in data set [2] was 322 s⁻¹.

B1: recombinant Mn oxidase complex: recombinantly produced Bacillus sp. PL-12 manganese oxidase complex comprising MnxG, MnxE and MnxF, expressed in E. coli (protein, listed as Bacillus sp.)
chain 1: HVFHYHVHQWLGDSSNINAEILDAQSISPQTHYSIQPLYGLGSLHGAIGDSIIHCHLYPHFGIGMWGINRVFDTLQDGSQCYPNGVRIDALKPLPDRPAPPKPTREKPGFPNFIPGKVGYKAPRPPLGIVGGREMTELERNAAIPNPRPGAVFVDPCLDQDPVVVEFNVSAIEMPVVYNKQGWHDPKARFYVMDEDLDDILSGKKEPEPLVFHVPAGTCIRMNYTNRMPHILDGDAFQLVTRTYENGFHIHFVKFDVLACDGGNVGWNYDSAVLPGQTIRYEWYAETELKAWFFHDHLF
chain 2: MHDSPLKSLSAASNVASVNDPLFDFFNKHMGKQILIITESSQLNILGQTFRPIFCGKVAEVEPGHLTLSPVTIKILNAPFHKFPIPLSIPFEKIAHFTTDVDCSMRIPLV
chain 3: MEALFPMSTDYSKMTDVNEIHDSAILEHFRNGIGHKTLVISPSYPYMFVGIIKELIGDTVMIDVETTHFAQLENREWYIHIHNIEVFYIERPGAPKIPKLEDY
Consider B1, for which, in data set [3], the “Fe(II) kcat” value worked out at 0.0744 ± 0.00779 s⁻¹ and the Michaelis-Menten constant (Km) was determined as 9 µM. For the same molecule, the “pH optimum of Mn oxidation” value in data set [4] is recorded as 7.8. Also, in data set [4] (HEPES dialyzed protein), the “Mn(II) K0.5” value worked out at 123 ± 7.00 µM and the “Mn(II) kcat” value came to 16.1 ± 0.941 s⁻¹. Besides, in data set [4] (Tris dialyzed protein), the “Mn(II) K0.5” value came to 134.6 ± 9.16 µM and the “Mn(II) kcat” value is 12.9 ± 0.758 s⁻¹. Moreover, the “2,6-DMP oxidation activity” value in data set [5] was “inactive”. Besides, the “lag time before O2 consumption is detected” value in data set [6] is reported as around 30 s. Also, in data set [6] (listed as recombinant Mnx complex), the “lag time before O2 consumption is detected” value is “about 30 s”. Also, in data set [6] (linear regression forced through the origin, 37° C., HEPES pH 7.8), the “slope of MnCl2 added vs. O2 consumed” value is listed as “about 0.252±0.0149”.
